Experimental data taken from paper PMC4635569, “Complement Evasion Mediated by Enhancement of Captured Factor H: Implications for Protection of Self-Surfaces from Complement” (The Journal of Immunology Author Choice, 2015).
Where a chain is given by its changes, count along the chain named. Names and notes keep the numbering of the source.

Target: T1, human C3b (human, UniProt P01024 23-667; P01024 749-1663)
T1 construct: Amine coupled to the SPR chips (C1 or CM5); source: bought: Complement Technologies, plasma-derived, used without further purification
T1 sequence (P01024 23-667, chain 1 of 2): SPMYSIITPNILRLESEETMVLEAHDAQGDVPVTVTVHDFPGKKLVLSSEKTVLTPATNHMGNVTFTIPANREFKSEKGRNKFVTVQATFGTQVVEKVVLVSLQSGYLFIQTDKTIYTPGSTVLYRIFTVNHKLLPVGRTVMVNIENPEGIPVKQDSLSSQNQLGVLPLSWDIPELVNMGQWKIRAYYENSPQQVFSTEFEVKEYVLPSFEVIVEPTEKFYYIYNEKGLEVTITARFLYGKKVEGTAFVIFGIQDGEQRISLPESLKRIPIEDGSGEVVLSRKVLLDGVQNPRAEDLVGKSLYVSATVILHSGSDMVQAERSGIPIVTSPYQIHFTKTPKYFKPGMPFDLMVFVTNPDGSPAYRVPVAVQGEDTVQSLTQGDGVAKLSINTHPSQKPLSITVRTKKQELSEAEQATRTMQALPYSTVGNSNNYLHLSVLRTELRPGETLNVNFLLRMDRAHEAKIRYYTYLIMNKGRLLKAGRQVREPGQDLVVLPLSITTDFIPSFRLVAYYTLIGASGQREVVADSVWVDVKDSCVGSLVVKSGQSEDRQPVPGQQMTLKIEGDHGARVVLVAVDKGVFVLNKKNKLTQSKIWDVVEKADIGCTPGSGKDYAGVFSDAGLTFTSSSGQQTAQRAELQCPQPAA
T1 sequence (P01024 749-1663, chain 2 of 2): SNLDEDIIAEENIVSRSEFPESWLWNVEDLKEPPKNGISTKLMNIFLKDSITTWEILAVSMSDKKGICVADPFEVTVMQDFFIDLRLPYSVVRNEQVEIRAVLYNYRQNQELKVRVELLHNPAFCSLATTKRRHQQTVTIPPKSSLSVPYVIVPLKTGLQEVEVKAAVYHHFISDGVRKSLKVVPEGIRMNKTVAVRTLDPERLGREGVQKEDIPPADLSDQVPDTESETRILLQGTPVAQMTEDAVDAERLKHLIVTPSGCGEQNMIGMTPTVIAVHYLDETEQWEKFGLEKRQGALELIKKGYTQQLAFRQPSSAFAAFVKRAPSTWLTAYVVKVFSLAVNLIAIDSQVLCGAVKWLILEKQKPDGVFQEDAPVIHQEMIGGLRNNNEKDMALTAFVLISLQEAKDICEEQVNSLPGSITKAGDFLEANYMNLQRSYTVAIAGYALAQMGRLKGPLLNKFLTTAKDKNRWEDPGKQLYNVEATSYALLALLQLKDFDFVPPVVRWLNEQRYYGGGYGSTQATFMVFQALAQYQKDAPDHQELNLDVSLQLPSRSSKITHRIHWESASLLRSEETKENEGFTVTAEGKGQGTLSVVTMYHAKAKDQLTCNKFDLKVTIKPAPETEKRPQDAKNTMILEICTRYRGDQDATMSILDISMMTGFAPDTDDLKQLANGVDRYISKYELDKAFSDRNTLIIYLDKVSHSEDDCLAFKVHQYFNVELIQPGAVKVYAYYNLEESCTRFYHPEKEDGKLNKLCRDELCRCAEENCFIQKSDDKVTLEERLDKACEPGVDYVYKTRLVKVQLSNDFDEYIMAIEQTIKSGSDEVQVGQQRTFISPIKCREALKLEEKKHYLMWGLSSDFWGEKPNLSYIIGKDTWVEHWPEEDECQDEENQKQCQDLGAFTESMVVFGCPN
Experiment: SPR; C3b (~250 RU) or C3d (~70 RU) amine coupled to adjacent flow cells of a Biacore C1 chip; FH preincubated with or without a 2-fold molar excess of PspCN injected (90 s, 30 μl/min, 400 s dissociation); 1:1 binding model
Details: both partners purified

B1: plasma-derived human complement factor H (natural protein)
chain: EDCNELPPRRNTEILTGSWSDQTYPEGTQAIYKCRPGYRSLGNVIMVCRKGEWVALNPLRKCQKRPCGHPGDTPFGTFTLTGGNVFEYGVKAVYTCNEGYQLLGEINYRECDTDGWTNDIPICEVVKCLPVTAPENGKIVSSAMEPDREYHFGQAVRFVCNSGYKIEGDEEMHCSDDGFWSKEKPKCVEISCKSPDVINGSPISQKIIYKENERFQYKCNMGYEYSERGDAVCTESGWRPLPSCEEKSCDNPYIPNGDYSPLRIKHRTGDEITYQCRNGFYPATRGNTAKCTSTGWIPAPRCTLKPCDYPDIKHGGLYHENMRRPYFPVAVGKYYSYYCDEHFETPSGSYWDHIHCTQDGWSPAVPCLRKCYFPYLENGYNQNYGRKFVQGKSIDVACHPGYALPKAQTTVTCMENGWSPTPRCIRVKTCSKSSIDIENGFISESQYTYALKEKAKYQCKLGYVTADGETSGSITCGKDGWSAQPTCIKSCDIPVFMNARTKNDFTWFKLNDTLDYECHDGYESNTGSTTGSIVCGYNGWSDLPICYERECELPKIDVHLVPDRKKDQYKVGEVLKFSCKPGFTIVGPNSVQCYHFGLSPDLPICKEQVQSCGPPPELLNGNVKEKTKEEYGHSEVVEYYCNPRFLMKGPNKIQCVDGEWTTLPVCIVEESTCGDIPELEHGWAQLSSPPYYYGDSVEFNCSESFTMIGHRSITCIHGVWTQLPQCVAIDKLKKCKSSNLIILEEHLKNKKEFDHNSNIRYRCRGKEGWIHTVCINGRWDPEVNCSMAQIQLCPPPPQIPNSHNMTTTLNYRDGEKVSVLCQENYLIQEGEEITCKDGRWQSIPLCVEKIPCSQPPQIEHGTINSSRSSQESYAHGTKLSYTCEGGFRISEENETTCYMGKWSSPPQCEGLPCKSPPEISHGVVAHMSDSYQYGEEVTYKCFEGFGIDGPAIAKCLGEKWSHPPSCIKTDCLSLPSFENAIPMGEKKDVYKAGEQVTYTCATYYKMDGASNVTCINSRWTGRPTCRDTSCVNPPTVQNAYIVSRQMSKYPSGERVRYQCRSPYEMFGDEEVMCLNGNWTEPPQCKDSTGKCGPPPPIDNGDITSFPLSVYAPASSVEYQCQNLYQLEGNKRITCRNGQWSEPPKCLHPCVISREIMENYNIALRWTAKQKLYSRTGESVEFVCKRGYRLSSRSHTLRTTCWDGKLEYPTCAKR
notes: complement factor H (FH), human, 20 CCP modules, plasma-derived; Glycosylated plasma protein; monomer of 155 kDa by SEC-MALS; also called FH; plasma-purified human FH; source: bought: Complement Technologies, plasma-derived, used without further purification
  Kd: 490 nM

B2: recombinant human FH with a wild-type sequence (natural protein)
chain: B1 chain
notes: Secreted from P. pastoris, so the native signal peptide is probably absent (surmise); also called rFH; recombinant wild-type FH; source: Pichia pastoris (fermentor), purified after enzymatic deglycosylation
  Kd: 600 nM

B3: recombinant FH(D1119G) (natural protein)
chain: B1 chain with D1101G
notes: complement factor H, human, full-length, with the aHUS-linked substitution D1119G (CCP 19); Expression-optimized synthetic DNA; Secreted from P. pastoris, so the native signal peptide is probably absent (surmise); also called rFH(D1119G); rFH; source: Pichia pastoris (vector pPICZαB), purified as described for rFH
  Kd: 540 nM
